Bounds are passed on as bounds.

Holding throughout (experiment): cell-based or functional assay
The target of test [1] is HIV-1 92TH021 envelope protein (Env) on pseudovirus (HIV-1).
In test [2] the target is HIV-1 MGRM-A-010 envelope glycoprotein (Env) (HIV-1).
Test [3] has as its target HIV-1 Env of isolate SF162 (HIV-1) (UniProt P19549).
Test [4] deals with HIV-1 Env of isolate MGRM-D-019 (clade D) (HIV-1).
The target in test [5] is HIV-1 Env of pseudovirus QH0692.42 (Acute), clade B (HIV-1).
In test [6] the target is HIV-1 LAVIC_18 Env (HIV-1).
Test [7] has as its target HIV-1 93UG077 envelope protein (Env) on pseudovirus (HIV-1).
The target of test [8] is HIV-1 92RW020 envelope protein (Env) on pseudovirus (HIV-1).
In test [9] the target is HIV-1 VLGCA1 envelope glycoprotein (Env) on pseudovirus (HIV-1).
In test [10] the target is HIV-1 94UG114 envelope glycoprotein (Env) on pseudovirus (HIV-1).
The target of test [11] is HIV-1 Env of pseudovirus TRO.11 (Acute), clade B (HIV-1).
Test [12] concerns the target HIV-1 MGRM-F1-016 Env (pseudovirus) (HIV-1).
Test [13] has as its target HIV-1 Env of pseudovirus JRCSF, clade B (HIV-1) (UniProt P20871).
Test [14] addresses HIV-1 Env of isolate MGRM-D-004 (HIV-1).
Test [15] concerns the target HIV-1 Env of isolate APV-17 (pseudovirus) (HIV-1 isolate APV-17, subtype B).
Test [16] has as its target HIV-1 JR-CSF Env E466A (HIV-1 (isolate JR-CSF)) (UniProt P20871).
The target of test [17] is HIV-1 Env of isolate SF162 (HIV-1) (UniProt P19550).
Test [18] concerns the target HIV-1 Env of isolate MGRM-A-010 (clade A), on pseudovirus (HIV-1).
Test [19] deals with HIV-1 Env of isolate THR0.18 (HIV-1).
In test [20] the target is HIV-1 Env of isolate MGRM-AG-002 (CRF_AG), on pseudovirus (HIV-1).
Test [21] concerns the target HIV-1 Env of isolate MGRM-F1-017 (subtype F), on pseudovirus (HIV-1).
Test [22] addresses HIV-1 Env of isolate MGRM-G-028 (HIV-1).
Test [23] deals with HIV-1 JR-CSF Env G471A (HIV-1 (isolate JR-CSF)) (UniProt P20871).
The target of test [24] is HIV-1 JR-CSF Env V127A (HIV-1 (isolate JR-CSF)) (UniProt P20871).
Test [25] deals with HIV-1 Env of isolate MGRM-D-022 (HIV-1).
Test [26] deals with HIV-1 JR-CSF Env Y177A (HIV-1 (isolate JR-CSF)) (UniProt P20871).
Test [27] addresses HIV-1 Env of isolate MGRM-AG-013 (CRF_AG), on pseudovirus (HIV-1).
Test [28] has as its target HIV-1 JR-CSF Env F468A (HIV-1 (isolate JR-CSF)) (UniProt P20871).
Test [29] deals with HIV-1 Env of isolate MGRM-F1-021 (subtype F), on pseudovirus (HIV-1).
Test [30] concerns the target HIV-1 Env of isolate MGRM-Chronic-B-008 (HIV-1).
The target of test [31] is HIV-1 Env of isolate 98CN009 (HIV-1).
For test [32], the target named is HIV-1 JR-CSF Env N160K (HIV-1 (isolate JR-CSF)) (UniProt P20871).
For test [33], the target named is HIV-1 MGRM-C-028 envelope glycoprotein (Env) on pseudovirus (HIV-1).

Sequence of 1443_C16 (PG16) (TCN-116) (antibody) (VH): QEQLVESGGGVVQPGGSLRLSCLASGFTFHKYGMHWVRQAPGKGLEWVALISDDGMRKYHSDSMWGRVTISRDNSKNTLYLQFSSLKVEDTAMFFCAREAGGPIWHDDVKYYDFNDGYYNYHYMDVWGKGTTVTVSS
Sequence of 1443_C16 (PG16) (TCN-116) (antibody) (VL): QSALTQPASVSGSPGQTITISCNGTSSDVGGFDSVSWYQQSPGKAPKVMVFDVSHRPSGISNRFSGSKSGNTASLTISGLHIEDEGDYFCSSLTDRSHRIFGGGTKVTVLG

The term IC50 denotes the concentration needed to halve the response being measured. A lower IC50 goes with greater potency. With 2F5 (antibody), the neutralization IC50 in test [1] came out at 1.51 mg/L; in test [7], 4.45 mg/L; in test [8], 3.37 mg/L. Further, the IC50 (µg/ml), pseudovirus neutralization in [2] is 20.8 µg/mL; in test [3] it was 2.52 µg/mL; in [4] it was 0.14 µg/mL; in test [5], 5.42 µg/mL; in test [9], 3.9 µg/mL; in [10], greater than 50 µg/mL. Further, the IC50 (µg/ml), pseudovirus neutralization in [11] is greater than 50 µg/mL; in test [12] it was 21.5 µg/mL; in test [13] it was 1.85 µg/mL. Further, the IC50 in test [6] was greater than 50 mg/L.

As for 2G12 (antibody), the neutralization IC50 in test [1] is greater than 50 mg/L; in [7] it was greater than 50 mg/L; in test [8] it was 0.56 mg/L. Further, the IC50 (µg/ml), pseudovirus neutralization is 17 µg/mL in test [2]; 1.67 µg/mL in test [3]; greater than 50 µg/mL in [4]; 4.39 µg/mL in test [5]; greater than 50 µg/mL in test [9]; 13.9 µg/mL in test [10]. In addition, the IC50 (µg/ml), pseudovirus neutralization was 0.29 µg/mL in test [11], greater than 50 µg/mL in test [12] and 0.37 µg/mL in test [13]. Also, the IC50 in test [6] is greater than 50 mg/L.

With 4E10 (antibody), the figures for the neutralization IC50 in test [1], in test [7] and in [8] were 1.9 mg/L, 11.2 mg/L and 3.38 mg/L, respectively. For the same substance, the IC50 (µg/ml), pseudovirus neutralization in test [2] worked out at 14.4 µg/mL; in [3] it was 4.28 µg/mL; in [4], 0.04 µg/mL; in [5], 12.7 µg/mL; in test [9], 4.58 µg/mL; in test [10], 9.72 µg/mL. Also, the IC50 (µg/ml), pseudovirus neutralization in test [11] was determined as 1.39 µg/mL; in test [12] it was 7.61 µg/mL; in test [13] it was 3.3 µg/mL. Further, in [6], the IC50 was greater than 50 mg/L.

As to 1443_C16 (PG16) (TCN-116) (antibody), the neutralization IC50 is 0.127 mg/L in test [1], greater than 50 mg/L in test [7] and 0.004 mg/L in [8]. Also, the IC50 (µg/ml), pseudovirus neutralization in test [2] was 0.004 µg/mL; in test [3] it was greater than 50 µg/mL; in test [4], 0.01 µg/mL; in test [5], greater than 50 µg/mL; in test [9], 0.18 µg/mL; in [10], greater than 50 µg/mL. Further, the results for the IC50 (µg/ml), pseudovirus neutralization in test [11], in test [12] and in test [13] were 0.22 µg/mL, 1.12 µg/mL and 0.001 µg/mL, respectively. This substance also yielded an IC50 in test [6] of 0.02 mg/L.

As for 1495_C14 (PGC14) (antibody), the neutralization IC50 in test [1] was greater than 50 mg/L; in test [7], greater than 50 mg/L; in test [8] it was 28.6 mg/L. The IC50 (µg/ml), pseudovirus neutralization in test [2] was greater than 50 µg/mL; in test [3], less than 0.0025 µg/mL; in test [4], greater than 50 µg/mL; in test [5] it was greater than 50 µg/mL; in test [9], greater than 50 µg/mL; in [10] it was greater than 50 µg/mL. The IC50 (µg/ml), pseudovirus neutralization is greater than 50 µg/mL in [11], greater than 50 µg/mL in [12] and 15 µg/mL in [13]. This substance also displayed an IC50 in test [6] greater than 50 mg/L.

Take 5147_N06 (PGT-130) (antibody): the IC50 in [14] was 1.21 mg/L; in test [17] it was 0.007 mg/L; in test [19], greater than 50 mg/L; in test [25] it was greater than 50 mg/L; in [30] it was 5.18 mg/L; in test [31] it was 0.136 mg/L. In test [15], this substance showed an IC50 (µg/mL) neutralization of 10.7 µg/mL. For the same substance, the Fold IC50 increase relative to wild-type in [16] turned out to be 1.7 fold; in test [23], 0.8 fold; in [24], 0.8 fold; in test [26], 3.6 fold; in test [28], 0.4 fold; in test [32], 3.4 fold. The IC50, single-round pseudovirus neutralization in test [18] is 0.005 mg/L; in [20] it was greater than 50 mg/L; in test [27] it was 0.01 mg/L. Moreover, the IC50, pseudovirus neutralization in test [21] was greater than 50 mg/L; in test [22], 0.074 mg/L; in test [29], greater than 50 mg/L. This substance registered an IC50 (ug/ml), neutralizing activity in test [33] greater than 10 µg/mL.

As to 5343_B08 (PGT-135) (antibody), the IC50 in test [14] was greater than 50 mg/L; in test [17], 0.023 mg/L; in test [19], greater than 50 mg/L; in test [25], greater than 50 mg/L; in test [30] it was greater than 50 mg/L; in [31], 0.071 mg/L. This substance also came in with an IC50 (µg/mL) neutralization in test [15] greater than 50 µg/mL. Moreover, the Fold IC50 increase relative to wild-type in test [16] was determined as 0.5 fold; in test [23], 3 fold; in test [24] it was 1.4 fold; in test [26], 0.3 fold; in test [28], 1.1 fold; in [32], 7.7 fold. Further, the IC50, single-round pseudovirus neutralization in test [18], in [20] and in [27] was greater than 50 mg/L each time. Besides, the IC50, pseudovirus neutralization was 7.79 mg/L in test [21], greater than 50 mg/L in [22] and 0.065 mg/L in [29].

Take b12 (antibody): the neutralization IC50 is 9.99 mg/L in [1], 41.1 mg/L in test [7] and greater than 50 mg/L in test [8]. For the same substance, the IC50 (µg/ml), pseudovirus neutralization was greater than 50 µg/mL in test [2]; 0.02 µg/mL in test [3]; greater than 50 µg/mL in test [4]; 0.73 µg/mL in [5]; greater than 50 µg/mL in test [9]; greater than 50 µg/mL in test [10]. Moreover, the IC50 (µg/ml), pseudovirus neutralization in test [11] was greater than 50 µg/mL; in test [12], greater than 50 µg/mL; in test [13], 0.21 µg/mL. In test [6], this substance showed an IC50 greater than 50 mg/L.

The values are drawn from US20200024330A1.
